# Test results taken from US20190248863A1 (published 2019).
# T1: mouse RXFP1 (mouse, UniProt Q6R6I7 1-758)
# T1 sequence (looked up): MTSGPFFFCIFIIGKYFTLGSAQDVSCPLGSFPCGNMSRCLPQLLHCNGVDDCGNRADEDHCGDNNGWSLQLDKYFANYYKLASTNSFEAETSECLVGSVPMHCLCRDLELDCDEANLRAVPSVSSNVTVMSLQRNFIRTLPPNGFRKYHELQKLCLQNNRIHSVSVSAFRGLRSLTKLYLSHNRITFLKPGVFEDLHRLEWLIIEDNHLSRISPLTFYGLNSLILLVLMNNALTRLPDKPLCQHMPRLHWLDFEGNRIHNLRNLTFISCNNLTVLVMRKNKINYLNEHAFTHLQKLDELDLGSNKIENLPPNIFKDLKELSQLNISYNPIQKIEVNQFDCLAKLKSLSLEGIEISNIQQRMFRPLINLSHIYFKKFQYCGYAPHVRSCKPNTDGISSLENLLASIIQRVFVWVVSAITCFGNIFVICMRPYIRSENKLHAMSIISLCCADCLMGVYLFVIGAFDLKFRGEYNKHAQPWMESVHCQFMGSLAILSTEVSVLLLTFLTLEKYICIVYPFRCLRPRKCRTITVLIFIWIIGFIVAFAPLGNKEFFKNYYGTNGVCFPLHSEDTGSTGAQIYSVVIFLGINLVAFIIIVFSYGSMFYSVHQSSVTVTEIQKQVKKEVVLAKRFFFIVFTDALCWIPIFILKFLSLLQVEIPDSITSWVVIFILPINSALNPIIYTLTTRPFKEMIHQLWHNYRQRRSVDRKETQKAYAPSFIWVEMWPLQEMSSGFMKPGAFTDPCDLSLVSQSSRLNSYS
# T2: rat RXFP1 (rat, UniProt Q6R6I6 1-758)
# T2 sequence (looked up): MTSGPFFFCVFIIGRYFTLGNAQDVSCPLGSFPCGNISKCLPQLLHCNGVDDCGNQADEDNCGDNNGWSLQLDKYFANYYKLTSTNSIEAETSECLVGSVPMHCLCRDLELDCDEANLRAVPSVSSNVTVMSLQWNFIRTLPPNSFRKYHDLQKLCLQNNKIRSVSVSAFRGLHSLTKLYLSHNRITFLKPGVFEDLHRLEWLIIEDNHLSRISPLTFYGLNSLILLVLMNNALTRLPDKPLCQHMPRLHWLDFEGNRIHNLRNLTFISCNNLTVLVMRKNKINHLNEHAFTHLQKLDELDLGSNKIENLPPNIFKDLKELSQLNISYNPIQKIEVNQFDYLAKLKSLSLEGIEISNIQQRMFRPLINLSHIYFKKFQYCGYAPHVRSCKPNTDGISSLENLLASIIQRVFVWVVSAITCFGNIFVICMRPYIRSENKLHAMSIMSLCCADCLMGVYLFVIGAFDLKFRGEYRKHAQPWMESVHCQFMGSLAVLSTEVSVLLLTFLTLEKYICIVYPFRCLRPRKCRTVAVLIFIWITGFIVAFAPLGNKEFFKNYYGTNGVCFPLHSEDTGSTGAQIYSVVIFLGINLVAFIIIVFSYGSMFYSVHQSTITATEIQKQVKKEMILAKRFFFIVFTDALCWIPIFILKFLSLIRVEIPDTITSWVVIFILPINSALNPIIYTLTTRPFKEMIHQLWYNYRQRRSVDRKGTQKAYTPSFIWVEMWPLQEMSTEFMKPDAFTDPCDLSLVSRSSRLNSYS
# T3: cynomolgus monkey RXFP1 (cynomolgus monkey, UniProt H9ERA2 1-757 (rhesus entry))
# T3 sequence: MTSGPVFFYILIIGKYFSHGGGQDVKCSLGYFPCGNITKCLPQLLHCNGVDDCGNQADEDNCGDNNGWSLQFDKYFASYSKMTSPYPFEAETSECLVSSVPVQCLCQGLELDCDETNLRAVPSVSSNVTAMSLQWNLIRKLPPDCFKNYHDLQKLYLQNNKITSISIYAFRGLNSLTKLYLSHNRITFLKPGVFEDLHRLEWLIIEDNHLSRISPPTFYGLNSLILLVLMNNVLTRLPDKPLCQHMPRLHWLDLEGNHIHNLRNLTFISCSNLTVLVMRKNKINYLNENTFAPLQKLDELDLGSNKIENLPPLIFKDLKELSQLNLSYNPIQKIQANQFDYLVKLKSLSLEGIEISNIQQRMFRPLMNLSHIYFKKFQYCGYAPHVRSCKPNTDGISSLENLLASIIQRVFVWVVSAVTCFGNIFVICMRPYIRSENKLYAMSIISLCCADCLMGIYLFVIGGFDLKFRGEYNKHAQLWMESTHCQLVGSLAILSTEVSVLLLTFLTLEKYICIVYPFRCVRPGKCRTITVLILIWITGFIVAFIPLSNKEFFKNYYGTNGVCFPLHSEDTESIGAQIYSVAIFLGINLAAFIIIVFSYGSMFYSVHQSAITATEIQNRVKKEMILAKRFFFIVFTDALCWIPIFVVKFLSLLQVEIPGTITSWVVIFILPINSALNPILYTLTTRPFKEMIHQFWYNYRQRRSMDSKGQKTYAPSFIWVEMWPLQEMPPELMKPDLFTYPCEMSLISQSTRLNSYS
# T4: human RXFP1 (human, UniProt Q9HBX9 1-757)
# T4 sequence (looked up): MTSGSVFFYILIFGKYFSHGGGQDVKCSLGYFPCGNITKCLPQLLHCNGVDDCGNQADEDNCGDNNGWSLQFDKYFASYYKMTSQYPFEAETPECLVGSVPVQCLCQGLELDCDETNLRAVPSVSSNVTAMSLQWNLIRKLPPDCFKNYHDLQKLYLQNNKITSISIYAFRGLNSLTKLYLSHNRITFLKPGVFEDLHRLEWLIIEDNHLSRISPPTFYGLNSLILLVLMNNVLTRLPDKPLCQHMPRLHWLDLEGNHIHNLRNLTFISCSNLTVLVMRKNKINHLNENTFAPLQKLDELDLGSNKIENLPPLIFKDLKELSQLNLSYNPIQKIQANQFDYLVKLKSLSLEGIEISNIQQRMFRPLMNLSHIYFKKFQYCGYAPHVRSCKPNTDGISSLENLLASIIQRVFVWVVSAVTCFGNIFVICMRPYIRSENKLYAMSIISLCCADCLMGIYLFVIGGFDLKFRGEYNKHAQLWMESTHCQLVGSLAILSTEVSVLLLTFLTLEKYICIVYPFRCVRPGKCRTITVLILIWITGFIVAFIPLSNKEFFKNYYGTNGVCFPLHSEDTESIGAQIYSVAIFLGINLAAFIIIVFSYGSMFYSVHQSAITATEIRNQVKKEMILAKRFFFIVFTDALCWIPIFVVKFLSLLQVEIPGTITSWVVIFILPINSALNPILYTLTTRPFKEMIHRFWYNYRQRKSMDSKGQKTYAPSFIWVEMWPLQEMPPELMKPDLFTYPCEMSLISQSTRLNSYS
# Columns and labels:
# Test in all cases: cell-based or functional assay
# [1] = biological target: dog RXFP1 (dog)
# [2] = biological target: T1, mouse RXFP1
# [3] = biological target: T2, rat RXFP1
# [4] = biological target: T3, cynomolgus monkey RXFP1
# [5] = biological target: T4, human RXFP1
binder,measurement,setting,value
"RLX-A-AQ1-20KPEG (ligand, para-acetylphenylalanine (pAcF, X) at position 1 of the A chain, linked to a 20 kDa PEG via an oxime linkage) chain 1: XLYSALANKCCHVGCTKRSLARFC chain 2: ASWMEEVIKLCGRELVRAQIAICGMSTWS","RLX-A-AQ1-20KPEG Potency Ratio (hRXFP1-1.0), cAMP assay",[1],4.7 fold
same,"RLX-A-AQ1-20KPEG Potency Ratio (hRXFP1-1.0), cAMP assay",[2],0.66 fold
same,"RLX-A-AQ1-20KPEG Potency Ratio (hRXFP1-1.0), cAMP assay",[3],0.34 fold
same,"RLX-A-AQ1-20KPEG Potency Ratio (hRXFP1-1.0), cAMP assay",[4],1.6 fold
same,"RLX-A-AQ1-20KPEG Potency Ratio (hRXFP1-1.0), cAMP assay",[5],1 fold
